Experimental findings from publication PMC3159478 (Nucleic Acids Research, 2011) are described below.

The target of one data set is T1, SsoMCM WT (Sulfolobus solfataricus, UniProt Q9UXG1 1-686).
T1 sequence: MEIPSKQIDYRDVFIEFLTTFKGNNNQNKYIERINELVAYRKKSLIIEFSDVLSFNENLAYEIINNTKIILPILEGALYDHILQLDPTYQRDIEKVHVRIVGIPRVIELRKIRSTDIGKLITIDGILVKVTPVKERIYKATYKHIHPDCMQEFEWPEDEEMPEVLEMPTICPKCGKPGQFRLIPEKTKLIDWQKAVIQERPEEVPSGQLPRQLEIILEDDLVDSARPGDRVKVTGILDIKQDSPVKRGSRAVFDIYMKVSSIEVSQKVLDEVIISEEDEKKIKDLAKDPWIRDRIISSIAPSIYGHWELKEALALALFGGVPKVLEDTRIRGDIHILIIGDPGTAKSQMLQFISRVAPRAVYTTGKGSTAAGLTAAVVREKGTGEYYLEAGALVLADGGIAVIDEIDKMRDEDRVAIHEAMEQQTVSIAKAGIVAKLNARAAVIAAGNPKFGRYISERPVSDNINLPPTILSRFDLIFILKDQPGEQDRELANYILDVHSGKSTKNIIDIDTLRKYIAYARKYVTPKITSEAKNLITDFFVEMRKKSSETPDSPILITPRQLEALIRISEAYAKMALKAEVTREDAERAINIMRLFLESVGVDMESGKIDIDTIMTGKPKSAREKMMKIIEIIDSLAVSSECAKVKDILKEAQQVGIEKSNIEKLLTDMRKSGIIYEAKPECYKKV
Kind of data set: fluorescence anisotropy.

A further data set has as its target T2, SsoMCM R440A (Sulfolobus solfataricus, UniProt Q9UXG1 1-686, R440A).
T2 sequence: T1 sequence with R440A
Briefly: fluorescence anisotropy. (In general: Fluorescence polarisation rises when a labelled molecule tumbles more slowly, as on binding a larger partner.)

The target of the next data set is T3, SsoMCM K323A (Sulfolobus solfataricus, UniProt Q9UXG1 1-686, K323A).
T3 sequence: T1 sequence with K323A
Briefly: fluorescence anisotropy.

Another data set addresses T4, SsoMCM K323A/R440A (Sulfolobus solfataricus, UniProt Q9UXG1 1-686, K323A;R440A).
T4 sequence: T1 sequence with K323A, R440A
Kind of data set: fluorescence anisotropy.

Data set [1] has as its target Q9UXG1. Kind of data set: FRET or BRET. A general note: Bioluminescence resonance energy transfer reports proximity on the nanometre scale.
Data set [2] concerns the target Q9UXG1. Kind of data set: FRET or BRET. The source holds these as a separate data set.
Data set [3] has as its target Q9UXG1. Kind of data set: FRET or BRET. This is another data set of the same source.
The target in data set [4] is Q9UXG1. Briefly: FRET or BRET. The source holds these as a separate data set.
For data set [5], the target named is Q9UXG1. Kind of data set: FRET or BRET. This is another data set of the same source.

Changes are numbered by the printed parent chain. Read-outs that look alike come from different tables or passages of the source.

B1: fork 5'-tail-50 nt / 3'-tail-30 nt (mixed)
DNA 1: CACCTCTCCCTACGCTTCCCACCCACCCCGACCGGCATCTGCTATGGTACGCTGAGCGAGAGTAGC
DNA 2: CGATGAGAGCCGATGAGAGCCGATGAGAGCGAGTCGCATGGTATCGTCTAGCCGGTCGGGGTGGGTGGGAAGCGTAGGGAGAGGTG
As usually defined, the Kd is the concentration at which binding is half-saturated. A lower Kd goes with higher affinity. Consider B1, for which the Kd in the data set with SsoMCM WT worked out at 75 ± 13 nM; in the data set with SsoMCM R440A it was 92 ± 13 nM; with SsoMCM K323A it was 93 ± 10 nM; in the data set with SsoMCM K323A/R440A, 90 ± 9 nM.

B2: Wild-type SsoMCM fluorescently labelled at the N-terminus with Alexa 488 (donor) or Alexa 555 (acceptor) (protein)
chain: T1 sequence
Regarding B2, the “kobs1 of MCM subunit exchange (first exponential, direct exchange of subunits)” value with Q9UXG1 [1] worked out at 0.125 ± 0.005 min⁻¹; with Q9UXG1 [2] it was 0.0474 s⁻¹; with Q9UXG1 [3], 0.192 s⁻¹; with Q9UXG1 [4], 0.196 s⁻¹; with Q9UXG1 [5], 0.0556 s⁻¹.
